From PMC3511649

What was measured:
[1] = molecular target: OG488-EGR labeled wild-type factor IXa (human) (UniProt P00740); assay: fluorescence polarisation
[2] = molecular target: OG488-EGR labeled Gla-domainless factor IXa (GD-FIXa) (human) (UniProt P00740); assay: fluorescence polarisation

Sequence of UniProt P00740 (P00740 47-191, chain 1 of 2): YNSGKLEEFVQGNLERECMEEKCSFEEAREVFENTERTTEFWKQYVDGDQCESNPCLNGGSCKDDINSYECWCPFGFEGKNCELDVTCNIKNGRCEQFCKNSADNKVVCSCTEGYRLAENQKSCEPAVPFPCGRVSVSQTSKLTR
Sequence of UniProt P00740 (P00740 227-461, chain 2 of 2): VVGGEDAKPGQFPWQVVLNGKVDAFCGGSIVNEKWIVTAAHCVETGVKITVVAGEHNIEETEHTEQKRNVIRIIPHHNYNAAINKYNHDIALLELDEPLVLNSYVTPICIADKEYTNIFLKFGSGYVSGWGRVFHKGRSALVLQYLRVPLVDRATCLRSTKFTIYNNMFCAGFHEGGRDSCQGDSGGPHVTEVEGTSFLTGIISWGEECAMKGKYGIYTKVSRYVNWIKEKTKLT

In the case of “human recombinant factor VIIIa (complex)”, the Kd [1] is reported as 1.5 nM and the Kd [2] is reported as 310 nM.
